The target of the assay is HupA fused to a split luciferase fragment (positive control of the assay). The experiment in a line: split reporter.

Take “HupA fused to a split luciferase fragment (positive control of the assay) (natural protein)”: the increase in luminescence signal after 1 hour of induction is greater than 2.

The record behind these values is doi:10.1101/2021.07.28.454260.
